Results from patent US20250043290A1, “RNA SEQUENCES THAT INDUCE FLUORESCENCE OF SMALL MOLECULE FLUOROPHORES, MOLECULAR COMPLEXES, SENSORS, AND METHODS OF USE THEREOF” (CORNELL UNIVERSITY, priority 2021, published 2025).

Columns and labels:
[1] = Fluorescence activation of DFHBI-1T by aptamers in vitro; format: biochemical
Text: FIG. 1A is a schematic illustrating the strategy for evolution of the add A-riboswitch aptamer. Indicated are helices P1-P3, junctional strands (J1/2, J2/3, J3/1), kissing loop (gray lines), and adenine interactions with the aptamer (dotted line) (5′-CUUCAUAUAAUCCUAAUGAUAUGGUUUGGGAGUUUCUACCAAGAGCCUUAAACUCUUGAUUAUGAAG-3′ (SEQ ID NO:36)). The chemical structure of adenine and fluorophores are shown. Three regions (Region 1: 5′-UAU AAU-3′ (SEQ ID NO:37)), Region 2: 5′-AGU UUC UAC C-3′ (SEQ ID NO:38); Region 3: 5′-GAU UAU-3′ SEQ ID NO:39), which include J1/2, J2/3, and J3/1 were randomized in both size and sequence resulting in a sprouts/clips library for SELEX. Each nucleotide in the colored regions was replaced using a combination of random stochastic deletion (designated “N”) and random stochastic insertion (designated “n”). FIG. 1B is schematic showing a three dimensional structure of the add A-riboswitch aptamer highlighting the adenine-binding pocket (PDB 1Y26). The mutagenized regions are shown in the same color as FIG. 1A. Adenine is indicated by the arrow. FIG. 1C is a schematic illustrating the evolution of the add A-riboswitch aptamer into Squash, a DFHBI-1T-binding aptamer. The sprouts/clips library was selected for binding to DFHBI-conjugated agarose resulting in aptamer 9-1. Aptamer 9-1 was subjected to two consecutive rounds of directed evolution generating DE2-6. A pair of mutations was introduced in DE2-6 to strengthen the kissing loop interaction resulting in Squash. FIG. 1D is a graph showing fluorescence activation of DFHBI-1T by different aptamer intermediates that led to Squash. The values inside the bars indicate fold-activation of DFHBI-1T fluorescence by the corresponding aptamer. Data represent mean values±s.d. for n=3 independent experiments. […]
FIG. 6A is a bar graph showing fluorescence activation of DFHO by Squash and its precursors. Fluorescence was measured with 200 nM dye and 10 μM RNA (ex: 495 nm, em: 562 nm, except for Corn; ex: 505 nm, em: 545 nm). […] FIG. 6B is a bar graph showing fluorescence of initial hits after Round 7 of SELEX. In vitro transcribed RNAs from each hit (1 μM final) were mixed with DFHBI-1T (10 μM final) and the fluorescence was measured (ex: 452 nm, em: 503 nm, except for Broccoli; ex: 472 nm, em: 507 nm). […] FIGS. 6C-6D are bar graphs showing fluorescence measurements of the hits with DFHBI-1T after first (FIG. 6C) and second (FIG. 6D) round of directed evolution, measured as in FIG. 6B. […] FIG. 6E is a bar graph showing fluorescence measurements of hits using DFHO after the second round of directed evolution measured as in FIG. 6A. The fluorescence of the hits were normalized against Corn. […] FIG. 6F is a graph showing normalized fluorescence. […] Fluorescence was measured as in FIG. 6A. […]

[2] = On and off rates of aptamer binding to DFHO; conditions: 50 nM RNA
Procedure: FIGS. 7A-7H provide photophysical and biophysical characterization of Squash. […] Excess RNA was used to ensure binding of nearly all fluorophore. […] Data represent mean values±s.d. for n=3 independent experiments. […] The fluorescence signal trace was fitted with a monoexponential curve to extract kobs. kobs was plotted as a function of total RNA (50 nM RNA) and fluorophore concentration. kon and koff were extracted as the slope and intercept, respectively. Squash koff (0.014±0.008 s^−1) is very similar to that of Corn (0.018±0.002 s^−1). kon for Squash-DFHO (162300±8100 M^−1 s^−1) is seven-times higher than Corn-DFHO (23000±3000 M^−1 s^−1) which could be due to the high folding of Squash. […]
To measure on and off rates of Squash binding to DFHO, the same protocol that was reported previously to measure kinetic rates for Spinach-DFHBI was used (Han et al., “Understanding the Photophysics of the Spinach-DFHBI RNA Aptamer-Fluorogen Complex to Improve Live-Cell RNA Imaging,” J. Am. Chem. Soc. 135:19033-19038 (2013), which is hereby incorporated by reference in its entirety). Briefly, 50 nM RNA was mixed with different amounts of DFHO and binding kinetics was monitored on the fluorimeter as fluorescence signal increases. Each fluorescence signal trace was fitted with a monoexponential curve and the observed rate constant (kobs) was extracted. […]

B1: Squash: fluorogenic RNA aptamer evolved from the add A-riboswitch aptamer, binds DFHBI-1T and DFHO; SEQ ID NO: 12 (SEQ ID NO: 1) (nucleic acid)
chain: AGGUGAGCCCAAUAAUACGGUUUGGGUUAGGAUAGGAAGUAGAGCCGUAAACUCUCUAAGCG
modifications: RNA, backbone not given here
- Fold activation of DFHBI-1T fluorescence [1]: 1064 fold
- koff [2]: 0.014 ± 0.008 s⁻¹
